Results reported in paper PMC4357503.

Experiments:
GST-Puf1p = target: T1, GST-Puf1p (UniProt P47135 1-1091); test: EMSA
T1 sequence: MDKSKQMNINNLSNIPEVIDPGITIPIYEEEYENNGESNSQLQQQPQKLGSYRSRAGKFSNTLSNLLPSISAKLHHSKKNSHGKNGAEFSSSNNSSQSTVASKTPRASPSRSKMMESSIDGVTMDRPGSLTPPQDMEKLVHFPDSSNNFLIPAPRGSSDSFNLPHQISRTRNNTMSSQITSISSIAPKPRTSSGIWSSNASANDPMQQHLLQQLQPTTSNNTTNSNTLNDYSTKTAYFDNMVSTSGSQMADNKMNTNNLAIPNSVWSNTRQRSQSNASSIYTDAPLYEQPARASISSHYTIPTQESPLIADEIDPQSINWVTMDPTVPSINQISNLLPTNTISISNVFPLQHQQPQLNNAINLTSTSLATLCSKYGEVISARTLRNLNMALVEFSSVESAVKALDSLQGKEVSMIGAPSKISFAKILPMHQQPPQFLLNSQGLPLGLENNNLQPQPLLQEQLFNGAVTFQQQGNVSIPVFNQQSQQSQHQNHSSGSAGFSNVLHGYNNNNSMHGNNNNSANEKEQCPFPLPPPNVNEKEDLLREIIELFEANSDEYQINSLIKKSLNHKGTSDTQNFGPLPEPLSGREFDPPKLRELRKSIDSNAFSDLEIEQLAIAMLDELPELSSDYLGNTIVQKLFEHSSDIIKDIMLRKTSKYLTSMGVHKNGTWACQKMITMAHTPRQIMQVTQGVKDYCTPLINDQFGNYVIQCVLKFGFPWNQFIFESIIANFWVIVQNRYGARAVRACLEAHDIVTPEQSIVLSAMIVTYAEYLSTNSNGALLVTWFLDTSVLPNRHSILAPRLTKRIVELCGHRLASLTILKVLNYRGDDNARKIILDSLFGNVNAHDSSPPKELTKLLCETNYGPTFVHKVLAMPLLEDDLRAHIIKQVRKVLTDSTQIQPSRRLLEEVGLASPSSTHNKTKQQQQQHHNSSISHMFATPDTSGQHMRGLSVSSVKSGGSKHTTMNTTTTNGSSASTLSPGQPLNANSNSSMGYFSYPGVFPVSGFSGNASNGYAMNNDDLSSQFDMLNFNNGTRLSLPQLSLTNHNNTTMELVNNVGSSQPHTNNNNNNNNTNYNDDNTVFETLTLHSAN

GST-Puf4p = target: T2, GST-Puf4p (UniProt P25339 1-888); test: EMSA
T2 sequence: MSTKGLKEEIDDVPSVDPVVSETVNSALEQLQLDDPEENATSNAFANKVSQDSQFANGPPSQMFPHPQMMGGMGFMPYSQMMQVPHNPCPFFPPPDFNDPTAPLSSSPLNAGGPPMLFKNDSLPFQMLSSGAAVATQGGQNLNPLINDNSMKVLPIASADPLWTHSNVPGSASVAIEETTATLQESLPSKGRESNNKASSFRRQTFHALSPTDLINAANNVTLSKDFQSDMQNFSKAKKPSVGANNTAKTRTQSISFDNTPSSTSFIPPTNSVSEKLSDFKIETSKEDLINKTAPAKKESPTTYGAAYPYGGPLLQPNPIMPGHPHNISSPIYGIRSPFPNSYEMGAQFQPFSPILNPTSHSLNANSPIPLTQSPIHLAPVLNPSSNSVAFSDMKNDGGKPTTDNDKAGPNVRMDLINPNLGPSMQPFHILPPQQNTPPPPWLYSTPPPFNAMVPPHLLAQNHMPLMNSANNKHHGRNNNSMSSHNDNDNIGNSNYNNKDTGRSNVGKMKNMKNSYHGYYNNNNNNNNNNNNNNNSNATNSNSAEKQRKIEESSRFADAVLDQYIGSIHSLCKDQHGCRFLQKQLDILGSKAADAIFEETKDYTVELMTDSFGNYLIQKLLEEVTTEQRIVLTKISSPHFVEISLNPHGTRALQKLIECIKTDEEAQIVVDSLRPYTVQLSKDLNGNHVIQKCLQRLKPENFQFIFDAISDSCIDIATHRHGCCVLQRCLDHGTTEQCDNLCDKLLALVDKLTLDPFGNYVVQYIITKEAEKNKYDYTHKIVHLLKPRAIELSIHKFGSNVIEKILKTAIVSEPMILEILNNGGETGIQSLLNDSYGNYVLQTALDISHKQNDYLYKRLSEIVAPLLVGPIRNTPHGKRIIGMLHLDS

GUAAAGAUUGUGUAUGUAUUUAUAAGAUGAAUA (ssRNA) [YHB1 WT PRE (oWO898)]: binds (GST-Puf1p); binds (GST-Puf4p).
